Experimental data reported in patent publication US20240294895A1, “ENZYMATIC COMPOSITIONS FOR CARBOHYDRATE ANTIGEN CLEAVAGE ON DONOR ORGANS, METHODS AND USES ASSOCIATED THEREWITH” (THE UNIVERSITY OF BRITISH COLUMBIA, priority 2018, published 2024).

How the values were obtained:
[1] = molecular target: Flavonifractor plautii GalNAcDeacetylase (FpGalNAcDeAc), SEQ ID NO: 2, 4, 5 (Flavonifractor plautii, UniProt P0DTR4); settings: 100 μM EDTA; 50 μM A antigen subtype 1penta-MU, pH 7.4, 37° C.
Description: FpGalNAcDeacetylase was tested against different potential inhibitors in 96-well plate format as a coupled assay. Reaction was performed in 100 μL scale at 37° C. with 50 μM A antigen subtype 1penta-MU and 5 μg/mL FpGalNAcDeacetylase in 100 mM NaH2PO4 PH 7.4 with 10 μg/mL FpGalactosaminidase, 50 μg/mL SpHex, 50 μg/mL AfcA, 50 μg/mL BgaC. As inhibitors EDTA (1, 10, 100 μM), Marimastat (1, 10, 100, 1000 μM), DMSO (2%, 4%), Protease Inhibitor Cocktail EDTA-free (Pierce™) (1×, 2× and 4×) were tested. The Fluorescence (365/435 nm) was monitored continuously for 1 hours using a Synergy H1™ plate reader (BioTek™).

[2] = substrate: CC(=O)N[C@H]1[C@H](O[C@H]2[C@@H](O)[C@@H](CO)O[C@@H](Oc3ccc4c(C)cc(=O)oc4c3)[C@@H]2O)O[C@H](CO)[C@@H](O)[C@@H]1O[C@@H]1O[C@H](CO)[C@H](O)[C@H](O[C@H]2O[C@H](CO)[C@H](O)[C@H](O)[C@H]2N)[C@H]1O[C@@H]1O[C@@H](C)[C@@H](O)[C@@H](O)[C@@H]1O; assay: Kinetic parameters of FpGalNase full length (MU or pNP release); assay type: biochemical, Flavonifractor plautii; settings: other: 100 mM NaH2PO4, pH 7.4, 37° C.
Description: (§1) All kinetic assays utilizing 4-methylumbelliferone as leaving group were performed through measurement of fluorescence. To avoid measurement errors based on the inner filter effect (Palmier 2007) standard curves were used to validate the linear range of the fluorophore.
(§2) Michaelis-Menten parameter was determined for GalN antigen subtype 1penta-MU and A antigen subtype 1penta-MU in 100 mM NaH2PO4, pH 7.4 at 37° C. Reaction was performed in 100 μl with 3.4 nM FpGalactosaminidase (5.31 nM FpGalNase_truncA) and 0.1 mg/mL SpHex, AfcA, 0.2 mg/mL BgaC and varying concentrations of substrate (5 μM-2 mM). The reactions were run as a series of four with controls (no FpGalactosaminidase) as duplicates. The fluorescence signal (365/435 nm) resulting from MU release by hydrolysis was monitored by Synergy H1™ plate reader [BioTek™] and converted to concentration using MU standard concentration curves determined under identical reaction conditions. Initial rates (μM/s) were determined and plotted in Grafit 7.0™ to determine the kinetic parameters.
(§3) kcat/KM parameter was determined for GalN antigen subtype 1/2/4tetra-MU and B antigen subtype 1tetra-MU at pH 7.4 and 37° C. Reactions (total volume of 100 μL) were performed in black 96-plate wells and as coupled assays in 100 mM NaH2 PO4 (pH 7.4) with 8.63 nM FpGalactosaminidase, 0.1 mg/mL SpHex, BgaC (BgaA for Subtype 2), AfcA, varying concentrations of substrate (25 μM, 20 μM, 15 μM, 10 μM, 7.5 μM, 5 μM). The reactions were run as a series of four with controls (no FpGalactosaminidase) as duplicates. The fluorescence signal (365/435 nm) resulting from MU release by hydrolysis was monitored by Synergy H1™ plate reader [BioTek™] and converted to concentration using MU standard concentration curves determined under identical reaction conditions. Initial rates (μM/s) were determined and plotted in Grafit 7.0™ to determine the kcat/KM (s^−1*mM^−1) parameters.
(§4) Michaelis-Menten parameters were determined for GalN-α-pNP in clear 96-plate at 37° C. with 863.2 nM FpGalactosaminidase (in 100 mM NaH2PO4, pH 7.4) or 369.9 nM FpGH4 (in 50 mM Tris/HCl, pH 7.4, 100 μM NAD^+, 1 mM MnCl2) with varying concentrations of substrate (10 μM-5 mM) in a volume of 100 μl. The reactions were run as a series of three with two controls (no enzyme). The absorption (at 405 nm) resulting from pNP release by hydrolysis was monitored by Synergy H1™ plate reader [BioTek™] and converted to concentration using p-nitrophenol standard concentration curves determined under identical reaction conditions. Initial rates (μM/s) were determined and plotted in Grafit 7.0™ to determine the kinetic parameters.

[3] = substrate: CC(=O)N[C@H]1[C@H](Oc2ccc3c(C)cc(=O)oc3c2)O[C@H](CO)[C@@H](O)[C@@H]1O[C@@H]1O[C@H](CO)[C@H](O)[C@H](O[C@H]2O[C@H](CO)[C@H](O)[C@H](O)[C@H]2N)[C@H]1O[C@@H]1O[C@@H](C)[C@@H](O)[C@@H](O)[C@@H]1O; assay: as above; assay type: biochemical, Flavonifractor plautii; settings: other: 100 mM NaH2PO4, pH 7.4, 37° C.
Description: as §1, §2, §3, §4

[4] = substrate: CC(=O)N[C@H]1[C@H](Oc2ccc3c(C)cc(=O)oc3c2)O[C@H](CO)[C@@H](O)[C@@H]1O[C@@H]1O[C@H](CO)[C@H](O)[C@H](O[C@H]2O[C@H](CO)[C@H](O)[C@H](O)[C@H]2O)[C@H]1O[C@@H]1O[C@@H](C)[C@@H](O)[C@@H](O)[C@@H]1O; assay: as above; assay type: biochemical, Flavonifractor plautii; settings: other: 100 mM NaH2PO4, pH 7.4, 37° C.
Description: as §1, §2, §3, §4

[5] = substrate: CC(=O)N[C@H]1[C@H](Oc2ccc3c(C)cc(=O)oc3c2)O[C@H](CO)[C@@H](O[C@@H]2O[C@H](CO)[C@H](O)[C@H](O[C@H]3O[C@H](CO)[C@H](O)[C@H](O)[C@H]3N)[C@H]2O[C@@H]2O[C@@H](C)[C@@H](O)[C@@H](O)[C@@H]2O)[C@@H]1O; assay: as above; assay type: biochemical, Flavonifractor plautii; settings: other: 100 mM NaH2PO4, pH 7.4, 37° C.
Description: as §1, §2, §3, §4

[6] = substrate: CC(=O)N[C@H]1[C@H](Oc2ccc3c(C)cc(=O)oc3c2)O[C@H](CO)[C@H](O)[C@@H]1O[C@@H]1O[C@H](CO)[C@H](O)[C@H](O[C@H]2O[C@H](CO)[C@H](O)[C@H](O)[C@H]2N)[C@H]1O[C@@H]1O[C@@H](C)[C@@H](O)[C@@H](O)[C@@H]1O; assay: as above; assay type: biochemical, Flavonifractor plautii; settings: other: 100 mM NaH2PO4, pH 7.4, 37° C.
Description: as §1, §2, §3, §4

[7] = substrate: N[C@H]1[C@@H](Oc2ccc([N+](=O)[O-])cc2)O[C@H](CO)[C@H](O)[C@@H]1O; assay: as above; assay type: biochemical, Flavonifractor plautii; settings: other: 100 mM NaH2PO4, pH 7.4, 37° C.
Description: as §1, §2, §3, §4

Sequence of Flavonifractor plautii GalNAcDeacetylase (FpGalNAcDeAc), SEQ ID NO: 2, 4, 5 (P0DTR4 13-772, looked up, natural form): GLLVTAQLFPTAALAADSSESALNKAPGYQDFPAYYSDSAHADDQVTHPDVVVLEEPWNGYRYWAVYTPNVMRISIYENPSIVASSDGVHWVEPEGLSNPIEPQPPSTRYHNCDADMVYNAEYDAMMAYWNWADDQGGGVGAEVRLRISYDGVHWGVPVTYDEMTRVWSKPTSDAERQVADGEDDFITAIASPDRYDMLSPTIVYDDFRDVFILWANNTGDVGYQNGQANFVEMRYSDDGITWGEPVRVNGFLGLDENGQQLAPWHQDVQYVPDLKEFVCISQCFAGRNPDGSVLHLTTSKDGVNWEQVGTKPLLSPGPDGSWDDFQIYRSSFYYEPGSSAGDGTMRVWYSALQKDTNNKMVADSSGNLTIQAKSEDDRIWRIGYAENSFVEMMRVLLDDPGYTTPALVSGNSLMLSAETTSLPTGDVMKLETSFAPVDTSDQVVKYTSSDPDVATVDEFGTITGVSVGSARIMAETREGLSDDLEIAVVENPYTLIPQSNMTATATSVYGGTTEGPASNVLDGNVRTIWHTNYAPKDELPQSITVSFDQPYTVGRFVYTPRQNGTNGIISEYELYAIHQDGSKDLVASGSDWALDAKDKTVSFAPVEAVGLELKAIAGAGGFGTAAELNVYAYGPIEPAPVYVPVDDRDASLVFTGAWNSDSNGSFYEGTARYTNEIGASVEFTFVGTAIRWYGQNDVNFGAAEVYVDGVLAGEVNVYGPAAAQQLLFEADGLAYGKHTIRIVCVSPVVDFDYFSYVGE

| Molecule | effect of treatment on enzyme activity [1] | Km [2] [µM] | kcat [2] [s⁻¹] | kcat/Km [2] [M⁻¹ s⁻¹] | kcat/Km [3] [M⁻¹ s⁻¹] | kcat/Km [4] [M⁻¹ s⁻¹] | kcat/Km [5] [M⁻¹ s⁻¹] | kcat/Km [6] [M⁻¹ s⁻¹] | Km [7] [µM] | kcat [7] [s⁻¹] | kcat/Km [7] [M⁻¹ s⁻¹] |
| --- | --- | --- | --- | --- | --- | --- | --- | --- | --- | --- | --- |
| O=C(O)CN(CCN(CC(=O)O)CC(=O)O)CC(=O)O [EDTA] | largely obliterated the enzyme activity | – | – | – | – | – | – | – | – | – | – |
| Flavonifractor plautii Galactosaminidase (FpGalNase), full length, SEQ ID NO: 7, 9, 10 (Flavonifractor plautii) (protein) MGHHHHHHHHHHSSGAAPATDTGNAGLIAEGDYAIAGNGVRVTYDADGQTITLYRTEGSGLIQMSKPSPLGGPVIGGQEVQDFSHISCDVEQSTSGVMGSGQRMTITSQSMSTGLIRTYVLETSDIEEGVVYTATSYEAGASDVEVSWFIGSVYELYGAEDRIWSYNGGGEGPMHYYDTLQKIDLTDSGKFSRENKQDDTAASIPVSDIYIADGGITVGDASATRREVHTPVQETSDSAQVSIGWPGKVIAAGSVIEIGESFAVVHPGDYYNGLRGYKNAMDHLGVIMPAPGDIPDSSYDLRWESWGWGFNWTIDLIIGKLDELQAAGVKQITLDDGWYTNAGDWALNPEKFPNGASDALRLTDAIHEHGMTALLWWRPCDGGIDSILYQQHPEYFVMDADGRPARLPTPGGGTNPSLGYALCPMADGAIASQVDFVNRAMNDWGFDGFKGDYVWSMPECYNPAHNHASPEESTEKQSEIYRVSYEAMVANDPNVFNLLCNCGTPQDYYSLPYMTQIATADPTSVDQTRRRVKAYKALMGDYFPVTADHNNIWYPSAVGTGSVLIEKRDLSGTAKEEYEKWLGIADTVQLQKGRFIGDLYSYGFDPYETYVVEKDGVMYYAFYKDGSKYSPTGYPDIELKGLDPNKMYRIVDYVNDRVVATNLMGDNAVFNTRFSDYLLVKAVEISEPDPEPVDPDYGFTSVDDRDEALIYTGTWHDDNNASFSEGTARYTNSTDASVVFSFTGTSIRWYGQRDTNFGTAEVYLDDELKTTVDANGAAEAGVCLFEALDLPAAEHTIKIVCKSGVIDIDRFAYEAATLEPIYEKVDALSDRITYVGNWEEYHNSEFYMGNAMRTDEAGAYAELTFRGTAVRLYAEMSFNFGTADVYLDGELVENIILYGQEATGQLMFERTGLEEGEHTIRLVQNAWNINLDYISYLPEQDQPTPPETTVTVDAMDAQLVYTGVWNDDYHDVFQEGTARYASSAGASVEFEFTGSEIRWYGQNDSNFGVASVYIDNEFVQQVNVNGAAAVGKLLFQKADLPAGSHTIRIVCDTPVIDLDYLTYTTNA | – | 64.5 ± 7.6 | 2.35 | 36480 | 45700 ± 3570 | 20 | 47270 ± 7490 | 30050 ± 2330 | 700 ± 151 | 0.029 | 40 |
